T1: recombinant canine CD20 expressed in HEK cells (Canis lupus familiaris, UniProt Q3C2E2, A201T/C77Y/G273E/L198V)
T1 construct: expressed in transfected cells; host or cells: HEK cells
T1 sequence (Q3C2E2 1-297 C77Y/L198V/A201T/G273E): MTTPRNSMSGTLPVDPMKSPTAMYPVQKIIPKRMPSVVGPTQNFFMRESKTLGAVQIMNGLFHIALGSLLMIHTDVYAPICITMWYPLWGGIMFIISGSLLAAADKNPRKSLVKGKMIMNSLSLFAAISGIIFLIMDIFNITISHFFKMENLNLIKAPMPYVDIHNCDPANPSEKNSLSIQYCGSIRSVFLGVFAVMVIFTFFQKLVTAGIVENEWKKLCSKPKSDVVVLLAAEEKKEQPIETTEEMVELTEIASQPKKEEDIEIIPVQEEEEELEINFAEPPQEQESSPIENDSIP

T2: recombinant canine CD20 (Canis lupus familiaris, UniProt Q3C2E2, A201T/C77Y/G273E/L198V)
T2 construct: are transfected with an expression vector encoding the full-length canine CD20 protein; expressed in transfected cells; host or cells: CHO cells (CHO-DG44)
T2 sequence (Q3C2E2 1-297 C77Y/L198V/A201T/G273E): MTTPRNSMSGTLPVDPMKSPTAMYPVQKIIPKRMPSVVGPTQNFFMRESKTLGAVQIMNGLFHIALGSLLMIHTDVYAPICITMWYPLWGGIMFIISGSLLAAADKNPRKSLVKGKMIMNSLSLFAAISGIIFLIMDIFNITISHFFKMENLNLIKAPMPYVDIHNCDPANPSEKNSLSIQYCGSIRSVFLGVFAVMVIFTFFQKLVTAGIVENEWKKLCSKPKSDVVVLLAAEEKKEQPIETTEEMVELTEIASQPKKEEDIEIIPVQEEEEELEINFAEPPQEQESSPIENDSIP

B1: CD20-6: anti-canine CD20 antibody; full length HC SEQ ID NO. 42, LC SEQ ID NO. 43 (antibody)
heavy: EIQLQQSGAELVRPGASVTLSCKASGYTFTDYEMHWVKQTPVHGLEWIGGIDPETGGTAYNQKFKGKAILTADKSSSTVYMELRSLTSEDSAVYYCTRDYGTSGYWGQGTLVTVSSASTTAPSVFPLAPSCGSQSGSTVALACLVSGYFPEPVTVSWNSGSLTSGVHTFPSVLQSSGLYSLSSMVTVPSSRWPSETFTCNVAHPASKTKVDKPVPKRENGRVPRPPDCPKCPAPEMLGGPSVFIFPPKPKDTLLIARTPEVTCVVVDLDPEDPEVQISWFVDGKQMQTAKTQPREEQFNGTYRVVSVLPIGHQDWLKGKQFTCKVNNKALPSPIERTISKARGQAHQPSVYVLPPSREELSKNTVSLTCLIKDFFPPDIDVEWQSNGQQEPESKYRTTPPQLDEDGSYFLYSKLSVDKSRWQRGDTFICAVMHEALHNHYTQKSLSHSPGK
light: DVVVTQTPLSLPVSFGDQVSISCRSSQSLANSYGNTYLSWYLHKPGQSPQLLIYGISNRFSGVPDRFSGSGSGTDFTLKISRVEAEDLGVYFCSQSTHVPWTFGGGTHLTVLGQPKASPSVTLFPPSSEELGANKATLVCLISDFYPSGVTVAWKADGSPITQGVETTKPSKQSNNKYAASSYLSLTPDKWKSHSSFSCLVTHEGSTVEKKVAPAECS
modifications: canis familiaris/mus musculus
notes: anti-canine CD20 antibody; 43
B2: VET 133 X VET 257: antibody variant: light chain VET133 (VET132 CD20-1 LC + VET101) with heavy chain VET257 (VET256 CD20-1 HC + VET201) (antibody)
heavy: EIQLQQSGAELVKPGASVKISCKASGYTFTDYYINWVKQRPGQGLEWIGKIGPGSGRTYYNEKFKGKATLTADKSSSTAYIQISSLTSEDSAVYFCAVLSWGQGTTLTVSSASTTAPSVFPLAPSCGSQSGSTVALACLVSGYFPEPVTVSWNSGSLTSGVHTFPSVLQSSGLYSLSSMVTVPSSRWPSETFTCNVAHPASKTKVDKPVPKRENGRVPRPPDCPKCPAPEMLGGPSVFIFPPKPKDTLLIARTPEVTCVVVDLDPEDPEVQISWFVDGKQMQTAKTQPREEQFNGTYRVVSVLPIGHQDWLKGKQFTCKVNNKALPSPIERTISKARGQAHQPSVYVLPPSREELSKNTVSLTCLIKDFFPPDIDVEWQSNGQQEPESKYRTTPPQLDEDGSYFLYSKLSVDKSRWQRGDTFICAVMHEALHNHYTQKSLSHSPGK
light: DVQITQTPLTLSVTFGQPASISCKSSQSLLKSDGRTYLNWLLQRPGQSPKRLLYLVSKLDSGVPDRFTGSGSGTDFTLKISRVEAEDLGVYYCWQGTHFPQTFGGGTKLEIKGQPKASPSVTLFPPSSEELGANKATLVCLISDFYPSGVTVAWKADGSPITQGVETTKPSKQSNNKYAASSYLSLTPDKWKSHSSFSCLVTHEGSTVEKKVAPAECS
B3: VET 135 X VET 260: antibody variant: light chain VET135 (CD20-2 LC + VET101) with heavy chain VET260 (VET259 CD20-2 HC FR4T + VET201) (antibody)
heavy: QVQLQQSRAELVRPGASVTLSCKPSGYTFTDYEVHWVKQTPVHGLEWIGAIDPETGGTADNQKFKGKAILTADKSSSTAYMELRSLTSEDSAVYYCTNFVDVWGTGTTVTVSSASTTAPSVFPLAPSCGSQSGSTVALACLVSGYFPEPVTVSWNSGSLTSGVHTFPSVLQSSGLYSLSSMVTVPSSRWPSETFTCNVAHPASKTKVDKPVPKRENGRVPRPPDCPKCPAPEMLGGPSVFIFPPKPKDTLLIARTPEVTCVVVDLDPEDPEVQISWFVDGKQMQTAKTQPREEQFNGTYRVVSVLPIGHQDWLKGKQFTCKVNNKALPSPIERTISKARGQAHQPSVYVLPPSREELSKNTVSLTCLIKDFFPPDIDVEWQSNGQQEPESKYRTTPPQLDEDGSYFLYSKLSVDKSRWQRGDTFICAVMHEALHNHYTQKSLSHSPGK
light: DVVMSQSPSSLAVSVGEKVTMSCKSSQSLLYSGNQKNYLAWYQQKPGQSPRLLIYWASTRESGVPDRFTGSGSGTDFTLTISSVKAEDLAVFYCQQYYNYPLTFGAGTKLELKGQPKASPSVTLFPPSSEELGANKATLVCLISDFYPSGVTVAWKADGSPITQGVETTKPSKQSNNKYAASSYLSLTPDKWKSHSSFSCLVTHEGSTVEKKVAPAECS

Experiments:
[1] = biological target: T1, recombinant canine CD20 expressed in HEK cells; experiment: FACS binding to cells expressing recombinant canine CD20
Experimental: (§1) The binding of the antibody variants of the present invention raised to canine CD20 can be assessed by FACS analysis for their binding to feline CD20 according to standard immunological techniques (see Veterinary Immunology and Immunopathology 2005, 106:179-196; Brousseau et al., Manual of Immunology Methods, CRC Press, 1998). In the present example, the antibody variants (2.5 μg/mL) are incubated with mammalian cells expressing the recombinant feline CD20 or canine CD20 or control cells. The amount of bound antibody is assessed by detection with a fluorescent-labeled reporter antibody reagent. Several controls are utilized to determine the background fluorescence: (i) CD20 expressing cells are incubated with the conjugated secondary antibody with an isotype antibody, and (ii) Control cells are incubated with the anti-CD20 antibodies.

[2] = tested on: feline CD20 expressed in mammalian cells; experiment: FACS binding to cells expressing recombinant feline CD20; settings: antibody 2.5 μg/mL
Experimental: as §1

Control Cells = experiment: FACS binding to control cells; settings: antibody 2.5 μg/mL
Experimental: In the present example, the antibody variants (2.5 μg/mL) are incubated with mammalian cells expressing the recombinant feline CD20 or canine CD20 or control cells. The amount of bound antibody is assessed by detection with a fluorescent-labeled reporter antibody reagent. Several controls are utilized to determine the background fluorescence: (i) CD20 expressing cells are incubated with the conjugated secondary antibody with an isotype antibody, and (ii) Control cells are incubated with the anti-CD20 antibodies.

recombinant canine CD20 = biological target: T2, recombinant canine CD20; experiment: Competition experiments (epitope mapping) on CHO cells expressing recombinant canine CD20; format: binding
Experimental: Competition experiments are performed using standard techniques. Briefly, biotinylated recombinant anti-canine CD20 antibodies are titrated on CHO cells expressing recombinant canine CD20. Cells are first incubated with an excess of unlabelled recombinant anti-canine CD20 antibody (25 μg/mL). Thereafter, cells are incubated with a biotin-labeled antibody at 2 μg/mL. After washing, cells are incubated with streptavidin- phycoerythrin and fluorescence is analyzed by flow cytometry. An irrelevant antibody is used as negative control for inhibition. Results are expressed as a ratio between fluorescence intensity of the cells pre-incubated with the unlabelled antibody and the fluorescence intensity obtained for each biotinylated antibody alone. The percentage of inhibition (PI) is calculated by the following formula: PI=[1−(Experimental-Background)/Biotinylated antibody alone−Background)]×100%.

lymphoma cells = experiment: MTT proliferation assay on lymphoma cells; format: cell-based; settings: 72 h; for percentage of reduction of cell proliferation, Doxorubicin 6.6 nM: Mab 10 ug/mL plus Doxorubicin 6.6 nM; for percentage of reduction of cell proliferation, Doxorubicin 66 nM: Mab 10 ug/mL plus Doxorubicin 66 nM; for percentage of reduction of cell proliferation, Doxorubicin 0 nM: Mab 10 ug/mL, triplicate
Experimental: Lymphoma cells are grown in RPMI medium with FBS 10% in 5% carbon dioxide (CO2) at 37° C. Cells are seeded at 5,000 cells/well in 96-well plates in medium with 5% FBS. Cells are treated with the antibody variants or isotype controls (10 μg/ml) and incubated for 72 h at 37° C. in a CO2 incubator. Ten (10) μL, MTT solution is added to each well and incubated at 37° C. for 4 h according to the manufacturer's instruction (Trevigen). Optical density (OD) is then measured at 490 nm and data is presented as percentage of reduction of cell proliferation of triplicate measurements. The data in Table 5 illustrate that the antibody variants have an anti-proliferative effect on lymphoma cells. Furthermore, the antibody variants sensitize the lymphoma cell line to Doxorubicin, a cytotoxic drug commonly used in the treatment of cancer for companion animals.
The antibody variants of the present invention are further tested for their ability to alter proliferation of lymphoma cells. Cell assays are conducted as described in the example above. Data is presented in Table 6 as percentage of reduction of cell proliferation of triplicate measurements.

feline CD20 expressed in mammalian cells, sequence (as listed by the source): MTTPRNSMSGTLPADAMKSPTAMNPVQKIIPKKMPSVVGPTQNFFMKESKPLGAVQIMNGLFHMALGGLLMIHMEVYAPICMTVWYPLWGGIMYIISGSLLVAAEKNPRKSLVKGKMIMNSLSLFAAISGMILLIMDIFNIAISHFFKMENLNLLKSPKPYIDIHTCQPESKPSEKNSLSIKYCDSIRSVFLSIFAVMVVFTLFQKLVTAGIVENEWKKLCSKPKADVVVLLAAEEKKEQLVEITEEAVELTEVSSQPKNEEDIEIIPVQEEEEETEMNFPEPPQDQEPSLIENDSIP

Molecule | binding to recombinant canine CD20 (in words) [1] | mean fluorescence, Canine CD20 ([1]; antibody 2.5 μg/mL) | mean fluorescence, Feline CD20 [2] | mean fluorescence, Control Cells (Control Cells) | epitope of canine CD20 (in words) (recombinant canine CD20; conclusion from Table 7) | percentage of inhibition (PI), labeled antibody CD20-1 (recombinant canine CD20; unlabelled competitor 25 μg/mL, biotin-labeled CD20-1 2 μg/mL) | percentage of inhibition (PI), labeled antibody CD20-2 (recombinant canine CD20; unlabelled competitor 25 μg/mL, biotin-labeled CD20-2 2 μg/mL) | percentage of inhibition (PI), labeled antibody CD20-5 (recombinant canine CD20; unlabelled competitor 25 μg/mL, biotin-labeled CD20-5 2 μg/mL) | percentage of reduction of cell proliferation, Doxorubicin 6.6 nM (lymphoma cells) | percentage of reduction of cell proliferation, Doxorubicin 66 nM (lymphoma cells) | percentage of reduction of cell proliferation, Doxorubicin 0 nM (lymphoma cells)
B1 | effective binding | 2107 mean fluorescence units | 60 mean fluorescence units | 4 mean fluorescence units | recognize different epitopes | 6.03% | 1.41% | 5.99% | – | – | –
B2 | – | – | – | – | – | – | – | – | 65.77% | 76.79% | 59.82%
B3 | – | – | – | – | – | – | – | – | 58.63% | 64.88% | 40.48%
